Results published in publication PMC6651687.

Molecular target: T1, TTHA0973 (PaaR, TetR family) (Thermus thermophilus HB8) (UniProt Q5SJN5)
T1 sequence: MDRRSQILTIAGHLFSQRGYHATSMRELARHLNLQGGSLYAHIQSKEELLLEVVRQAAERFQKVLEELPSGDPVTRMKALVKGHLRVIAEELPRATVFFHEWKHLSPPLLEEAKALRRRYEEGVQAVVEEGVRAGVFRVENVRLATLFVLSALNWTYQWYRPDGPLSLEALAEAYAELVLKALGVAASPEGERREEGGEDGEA
Assay: BLI
Details: BLI with 11, 33, 100, 300 nM TTHA0973; EMSA 0-100 nM; buffer, salt, pH, temperature not given (cited protocol)

Question: “CTAGGAATTCGTGCAGAGGTGAATACCTAGCGTTACTTTTACCATCCCTCCAGAAGCTTGGACA (double strand) [ST2_0973_0647bp]” was tested. Which Kd did it give?
Answer: 99.5 nM
